According to US20230265151A1, “GIP/GLP1 CO-AGONIST COMPOUNDS” (priority 2020, published 2023):

T1: human GIP receptor (human, UniProt P48546 22-466)
T1 sequence (looked up): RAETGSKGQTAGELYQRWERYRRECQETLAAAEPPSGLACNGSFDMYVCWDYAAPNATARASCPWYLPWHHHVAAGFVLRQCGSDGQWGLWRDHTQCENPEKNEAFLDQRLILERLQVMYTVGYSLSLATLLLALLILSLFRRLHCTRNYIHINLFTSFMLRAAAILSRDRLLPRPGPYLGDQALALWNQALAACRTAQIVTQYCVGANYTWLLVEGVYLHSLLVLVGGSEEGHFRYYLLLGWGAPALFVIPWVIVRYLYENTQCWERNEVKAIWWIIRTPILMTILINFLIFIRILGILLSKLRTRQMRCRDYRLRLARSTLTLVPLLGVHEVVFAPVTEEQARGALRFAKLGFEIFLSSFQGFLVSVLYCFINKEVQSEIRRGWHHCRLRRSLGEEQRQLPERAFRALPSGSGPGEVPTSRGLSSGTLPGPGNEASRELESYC


Assays:
Test in all cases: cell-based or functional assay
human GLP-1 receptor = human GLP-1 receptor (human, UniProt P43220 24-463)
human glucagon receptor = human glucagon receptor (human, UniProt P47871 26-477)
human GIP receptor = molecular target: T1, human GIP receptor

Binder	EC50, cAMP (human GLP-1 receptor) [nM]	Emax, cAMP (human GLP-1 receptor) [%]	EC50, cAMP (human glucagon receptor) [nM]	EC50, cAMP (human GIP receptor) [nM]	Emax, cAMP (human GIP receptor) [%]
YXEGTXTSDXSIXLDXKAQXEXIXXLIEGGKSSGAPPPS (Aib2, αMeF(2F)6, 4Pal10, αMeL13, Orn16, Aib20, 2FPhe22, D-Glu24, αMeY25, K17 and K31: K(AEEA2-(γ-Glu)-CO-(CH2)12-CO2H), C-terminal NH2) [Example 63]	1.86	90.6	> 9950	0.0176	
YXEGTXTSDXSIXLDXKAQXEFIEKLIEGGPSSGAPPPS (Aib2, αMeF(2F)6, 4Pal10, αMeL13, Orn16, Aib20, K17 and K25: K(AEEA2-(γ-Glu)-(4-(4-tert-butylphenyl)butanoyl)), C-terminal NH2) [Example 68]	0.668	95.9	> 9950	0.0105	
YXEGTXTSDXSIXLDXIAQXEFIKXLIKGGPSSGAPPPS (Aib2, αMeF(2F)6, 4Pal10, αMeL13, Orn16, Aib20, αMeY25, K24 and K28: K(AEEA2-(γ-Glu)-CO-(CH2)12-CO2H), C-terminal NH2) [Example 70]	0.283		> 9950	0.0182	89.1
YXEGTXTSDXSIXLDXKAQXEXIKYLIEGGPSSGAPPPS (Aib2, αMeF(2F)6, 4Pal10, αMeL13, Orn16, Aib20, αMeF22, K17 and K24: K(AEEA2-(γ-Glu)-CO-(CH2)12-CO2H), C-terminal NH2) [Example 85]	7.69	95.3	> 9950	0.0312	91.7
YXEGTXTSDXSIXLDXIAQXKFIXXLIEGGKSSGAPPPS (Aib2, αMeF(2F)6, 4Pal10, αMeL13, Orn16, Aib20, D-Glu24, αMeY25, K21 and K31: K(AEEA2-(γ-Glu)-CO-(CH2)12-CO2H), C-terminal NH2) [Example 74]	0.334		> 9950	0.0156	93.3
YXEGTXTSDXSIXLDXKAQXEFIKXLIEGGPSSGAPPPS (Aib2, αMeF(2F)6, 4Pal10, αMeL13, Orn16, Aib20, αMeY25, K17 and K24: K(AEEA-(γ-Glu)-CO-(CH2)12-CO2H), C-terminal NH2) [Example 79]	0.223		> 9950	0.013	
YXEGTXTSDXSIXLDXKAQXEXIXXLIEGGKSSGAPPPS (Aib2, αMeF(2F)6, 4Pal10, αMeL13, Orn16, Aib20, 3FPhe22, D-Glu24, αMeY25, K17 and K31: K(AEEA2-(γ-Glu)-CO-(CH2)12-CO2H), C-terminal NH2) [Example 64]	0.557	97.3	> 9950	0.0158	
YXEGTXTSDXSIXLDXKAQXKFIXXLIEGGPSSGAPPPS (Aib2, αMeF(2F)6, 4Pal10, αMeL13, Orn16, Aib20, D-Glu24, αMeY25, K17 and K21: K(AEEA3-(γ-Glu)-CO-(CH2)12-CO2H), C-terminal NH2) [Example 77]	3.03	87	> 9950	0.0288	
YXEGTXTSDXSIXLDXKAQXEFIXKLIEGGPSSGAPPPS (Aib2, αMeF(2F)6, 4Pal10, αMeL13, Orn16, Aib20, D-Glu24, K17 and K25: K(AEEA2-(γ-Glu)-(4-(4-tert-butylphenyl)butanoyl)), C-terminal NH2) [Example 67]	2.63	91.7	> 9950	0.00795	
YXEGTXTSDXSIXLDXKAQXKFIXXLIEGGPSSGAPPPS (Aib2, αMeF(2F)6, 4Pal10, αMeL13, Orn16, Aib20, D-Glu24, αMeY25, K17 and K21: K(AEEA-(γ-Glu)-CO-(CH2)12-CO2H), C-terminal NH2) [Example 76]	0.527		> 9950	0.0205	
YXEGTXTSDXSIXLDXKAQXEXIKXLIEGGPSSGAPPPS (Aib2, αMeF(2F)6, 4Pal10, αMeL13, Orn16, Aib20, αMeF22, αMeF25, K17 and K24: K(AEEA2-(γ-Glu)-CO-(CH2)12-CO2H), C-terminal NH2) [Example 84]	5.27	94	> 9950	0.0315	98.5
YXEGTXTSDXSIXLDXKAQXEXIXXLIEGGKSSGAPPPS (Aib2, αMeF(2F)6, 4Pal10, αMeL13, Orn16, Aib20, 2ClPhe22, D-Glu24, αMeY25, K17 and K31: K(AEEA2-(γ-Glu)-CO-(CH2)12-CO2H), C-terminal NH2) [Example 61]	1.35	82.9	> 9950	0.012	
YXEGTXTSDXSIXLDXKAQXEFIXXLIEGGKSSGAPPPS (Aib2, αMeF(2F)6, 4Pal10, αMeL13, Orn16, Aib20, D-Glu24, αMeY25, K17 and K31: K(AEEA2-(γ-Glu)-CO-(CH2)14-CH3), C-terminal NH2) [Example 7]	0.00676		> 9950	0.00327	
YXEGTXTSDXSIXLDXKAQXKFIXXLIEGGPSSGAPPPS (Aib2, αMeF(2F)6, 4Pal10, αMeL13, Orn16, Aib20, D-Glu24, αMeY25, K17 and K21: K(AEEA2-CO-(CH2)12-CO2H), C-terminal NH2) [Example 78]	0.286		> 9950	0.0145	
YXEGTXTSDXSIXLDXKAQXEXIXXLIEGGKSSGAPPPS (Aib2, αMeF(2F)6, 4Pal10, αMeL13, Orn16, Aib20, αMeF(2F)22, D-Glu24, αMeY25, K17 and K31: K(AEEA2-(γ-Glu)-CO-(CH2)12-CO2H), C-terminal NH2) [Example 88]	6.08	97.1	> 9950	0.00884	85.1
YXEGTXTSDXSIXLDXKAQXEFIKXLIEGGPSSGAPPPS (Aib2, αMeF(2F)6, 4Pal10, αMeL13, Orn16, Aib20, αMeY25, K17 and K24: K(AEEA2-CO-(CH2)12-CO2H), C-terminal NH2) [Example 81]	0.176		> 9950	0.0114	
YXEGTXTSDXSIXLDXIAQXKFIKXLIEGGPSSGAPPPS (Aib2, αMeF(2F)6, 4Pal10, αMeL13, Orn16, Aib20, αMeY25, K21 and K24: K(AEEA2-(γ-Glu)-CO-(CH2)12-CO2H), C-terminal NH2) [Example 69]	0.276		> 9950	0.0265	99
YXEGTXTSDXSIXLDXKAQXEFIKXLIEGGPSSGAPPPS (Aib2, αMeF(2F)6, 4Pal10, αMeL13, Orn16, Aib20, αMeY25, K17 and K24: K(AEEA3-(γ-Glu)-CO-(CH2)12-CO2H), C-terminal NH2) [Example 80]	0.718		> 9950	0.0245	92.4
